Source: article PMC10147646

Key:
[1] = target: JellyOp (opsin-based pigment from the box jellyfish Carybdea rastonii) (Carybdea rastonii)
[2] = target: JellyOp(K72T) (Carybdea rastonii)
[3] = target: JellyOp (opsin-based pigment from the box jellyfish Carybdea rastonii) (Carybdea rastonii); remark: listed apart in the source

JellyOp (opsin-based pigment from the box jellyfish Carybdea rastonii) (Carybdea rastonii), sequence (B6F0Y5 entry or part of it): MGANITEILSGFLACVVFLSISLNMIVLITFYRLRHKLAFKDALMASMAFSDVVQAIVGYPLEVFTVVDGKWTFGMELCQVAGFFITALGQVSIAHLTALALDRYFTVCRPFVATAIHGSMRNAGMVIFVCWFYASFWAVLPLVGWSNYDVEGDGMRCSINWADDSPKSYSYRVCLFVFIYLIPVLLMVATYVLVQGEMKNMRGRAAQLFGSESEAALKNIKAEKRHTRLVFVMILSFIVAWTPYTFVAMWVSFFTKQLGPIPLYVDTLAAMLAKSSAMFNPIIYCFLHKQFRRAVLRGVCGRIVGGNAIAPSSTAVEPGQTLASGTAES

Gαs (from UniProt P63092 1-394) (natural protein)
time constant of inactivation (TauOFF) of the JellyOp GIRK response by high-intensity violet light (405 nm) [1]: 252 ms
fast time constant of GIRK current inactivation by violet light (double-exponential decay) [2]: 281 ms
slow time constant of GIRK current inactivation by violet light (double-exponential decay) [2]: 8.4 s
time constant of onset (TauON) of the light-triggered GIRK current in cells expressing JellyOp [3]: 34 ms
